A short description of data set [1]: anti-V5 Western blot of transfected cells. Particulars: glycan lost; control: wild-type MFSD2a.
Data set [2] is described as follows: anti-V5 immunofluorescence, confocal, Cos-7 cells. Particulars: glycan lost; control: wild-type MFSD2a.
Data set [3] can be described thus: luciferase infection assay in transfected HeLa cells. The following applies: glycan lost; control: wild-type MFSD2a.
Data set [4] has as its target T1, MFSD2a, endogenous on human cell lines (human (endogenous in HEK293T, Jurkat, HUVEC, U87-MG)) (UniProt Q8NA29).
T1 sequence: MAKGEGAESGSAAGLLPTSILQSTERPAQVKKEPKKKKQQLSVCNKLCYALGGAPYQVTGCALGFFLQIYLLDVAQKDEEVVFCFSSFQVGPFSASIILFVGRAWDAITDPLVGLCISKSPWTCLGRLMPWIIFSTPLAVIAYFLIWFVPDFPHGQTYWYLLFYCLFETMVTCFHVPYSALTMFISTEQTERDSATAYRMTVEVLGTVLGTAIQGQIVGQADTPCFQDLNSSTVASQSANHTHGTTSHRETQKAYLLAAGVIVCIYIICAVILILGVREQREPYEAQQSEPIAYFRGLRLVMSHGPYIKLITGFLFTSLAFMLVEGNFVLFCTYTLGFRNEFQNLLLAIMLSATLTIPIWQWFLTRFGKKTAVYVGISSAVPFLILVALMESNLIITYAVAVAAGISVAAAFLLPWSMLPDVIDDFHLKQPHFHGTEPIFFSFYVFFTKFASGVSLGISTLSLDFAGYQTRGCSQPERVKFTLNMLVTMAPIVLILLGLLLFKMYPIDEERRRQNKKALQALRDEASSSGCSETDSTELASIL

The target of data set [5] is T1, MFSD2a, endogenous on human cell lines (human (endogenous in HEK293T, Jurkat, HUVEC, U87-MG)). This is another data set of the same source.
In data set [6] the target is simian MFSD2a, endogenous on Cos-7 cells (simian (endogenous in Cos-7)).
The target in data set [7] is T2, MFSD2a N217Q-V5, expressed in HeLa cells (UniProt Q8NA29).
T2 sequence: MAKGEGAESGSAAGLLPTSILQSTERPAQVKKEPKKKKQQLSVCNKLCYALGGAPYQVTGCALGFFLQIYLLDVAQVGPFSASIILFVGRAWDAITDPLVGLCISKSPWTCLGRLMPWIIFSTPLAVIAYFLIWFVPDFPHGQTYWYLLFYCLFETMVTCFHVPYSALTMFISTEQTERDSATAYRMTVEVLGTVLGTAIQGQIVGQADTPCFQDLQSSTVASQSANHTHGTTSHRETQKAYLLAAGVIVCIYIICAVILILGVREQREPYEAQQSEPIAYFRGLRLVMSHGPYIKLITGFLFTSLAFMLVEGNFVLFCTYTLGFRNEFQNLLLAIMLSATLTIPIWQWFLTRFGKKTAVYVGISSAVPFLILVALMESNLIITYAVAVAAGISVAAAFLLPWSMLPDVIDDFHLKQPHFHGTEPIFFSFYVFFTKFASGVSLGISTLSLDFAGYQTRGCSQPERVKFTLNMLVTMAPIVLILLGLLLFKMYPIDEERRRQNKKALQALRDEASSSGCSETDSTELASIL

The target of data set [8] is T3, MFSD2a N227Q-V5, expressed in HeLa cells (UniProt Q8NA29).
T3 sequence: T2 sequence with Q217N, N227Q

Data set [9] deals with T1, MFSD2a, endogenous on human cell lines (human (endogenous in HEK293T, Jurkat, HUVEC, U87-MG)). This is another data set of the same source.

Residue numbers refer to the chain shown, from its start. Names and notes keep the numbering of the source.

B1: MFSD2a: N217Q (protein)
parent chain: T2 sequence with Q217N
B1: in data set [1], the expression_or_secretion entry is “no change”. The localisation_or_trafficking entry in data set [2] was “no change”. For the same molecule, the “other: galectin-1 enhancement of Syn-2 pseudovirus infectivity, fold_change” value in data set [3] is given as “no change, 10.8-fold +/− 3.96 vs 9.3 +/− 1.52”.

B2: MFSD2a: double mutant (protein)
parent chain: T2 sequence with Q217N
For B2, the expression_or_secretion result in data set [1] was “decreases”.

B3: MFSD2a: N227Q (protein)
parent chain: T2 sequence with Q217N
Regarding B3, the expression_or_secretion result in data set [1] is listed as “no change”. In addition, the localisation_or_trafficking result in data set [2] is “no change”. Besides, the “other: galectin-1 enhancement of Syn-2 pseudovirus infectivity, fold_change” value in data set [3] is on record as “no change, 10.2-fold +/− 4.75 vs 9.3 +/− 1.52”.

B4: Syncytin-2, expressed in HEK293T cells (cell fusion assay) (natural protein)
chain: AYRHPDFPLLEKAQQLLQSTGSPYSTNCWLCTSSSTETPGTAYPASPREWTSIEAELHISYRWDPNLKGLMRPANSLLSTVKQDFPDIRQKPPIFGPIFTNINLMGIAPICVMAKRKNGTNVGTLPSTVCNVTFTVDSNQQTYQTYTHNQFRHQPRFPKPPNITFPQGTLLDKSSRFCQGRPSSCSTRNFWFRPADYNQCLQISNLSSTAEWVLLDQTRNSLFWENKTKGANQSQTPCVQVLAGMTIATSYLGISAVSEFFGTSLTPLFHFHISTCLKTQGAFYICGQSIHQCLPSNWTGTCTIGYVTPDIFIAPGNLSLPIPIYGNSPLPRVRRAIHFIPLLAGLGILAGTGTGIAGITKASLTYSQLSKEIANNIDTMAKALTTMQEQIDSLAAVVLQNRRGLDMLTAAQGGICLALDEKCCFWVNQSGKVQDNIRQLLNQASSLRERATQGWLNWEGTWKWFSWVLPLTGPLVSLLLLLLFGPCLLNLITQFVSSRLQAIKLQTNLSAGRHPRNIQESPF
B4: the cellular fusion index of Syn-2-transfected HEK293T cells with 4 µM recombinant Gal-1 for 24 h (8.56% +/− 0.6 with PBS; 5.76% +/− 0.22 with Gal-1 and 50 mM lactose) in data set [4] was 17.5%.

B5: Syncytin-2 (Flag-tagged), on pseudotyped NL4.3 virions (natural protein)
chain: B4 chain
Molecule B5 returned a fold-change in infectivity (luciferase) of Syn-2-pseudotyped viruses on HEK293T cells with 4 µM Gal-1 against virus only; abolished by 50 mM lactose in [5] of 5.51 fold. In data set [6], this molecule had a fold-change in infectivity (luciferase) of Syn-2-pseudotyped viruses on Cos-7 cells with 4 µM Gal-1 against virus only; abolished by 50 mM lactose of 6.93 fold. Besides, the fold-change in infectivity (luciferase) of Syn-2-pseudotyped viruses on N217Q-MFSD2a-transfected HeLa cells with Gal-1 against control; counteracted by lactose in [7] was 10.8 fold. For the same molecule, the fold-change in infectivity (luciferase) of Syn-2-pseudotyped viruses on N227Q-MFSD2a-transfected HeLa cells with Gal-1 against control; counteracted by lactose in [8] turned out to be 10.2 fold. In [9], the fold-change in infectivity (luciferase) of Syn-2-pseudotyped viruses on HUVEC cells with 4 µM Gal-1 against virus only; inhibited by 50 mM lactose worked out at 33.4 fold, the fold-change in infectivity (luciferase) of Syn-2-pseudotyped viruses on Jurkat cells with 4 µM Gal-1 against virus only; inhibited by 50 mM lactose is 14.1 fold and the fold-change in infectivity (luciferase) of Syn-2-pseudotyped viruses on U87-MG cells with 4 µM Gal-1 against virus only; inhibited by 50 mM lactose was determined as 6.76 fold.

These data come from PMC10747188.
